The results in this text go back to article PMC2175296.

The experiment concerns the target GST–hEST1A (recombinant full-length human EST1A/SMG6 as N-terminal GST fusion) (human) (UniProt Q86US8). The experiment can be described thus: pull-down.

Where “and” joins values, the source holds several entries; their conditions need not be identical. Equal entries are not always repeated.

Chain of UniProt Q86US8 (Q86US8 whole entry, the tested form may be a part): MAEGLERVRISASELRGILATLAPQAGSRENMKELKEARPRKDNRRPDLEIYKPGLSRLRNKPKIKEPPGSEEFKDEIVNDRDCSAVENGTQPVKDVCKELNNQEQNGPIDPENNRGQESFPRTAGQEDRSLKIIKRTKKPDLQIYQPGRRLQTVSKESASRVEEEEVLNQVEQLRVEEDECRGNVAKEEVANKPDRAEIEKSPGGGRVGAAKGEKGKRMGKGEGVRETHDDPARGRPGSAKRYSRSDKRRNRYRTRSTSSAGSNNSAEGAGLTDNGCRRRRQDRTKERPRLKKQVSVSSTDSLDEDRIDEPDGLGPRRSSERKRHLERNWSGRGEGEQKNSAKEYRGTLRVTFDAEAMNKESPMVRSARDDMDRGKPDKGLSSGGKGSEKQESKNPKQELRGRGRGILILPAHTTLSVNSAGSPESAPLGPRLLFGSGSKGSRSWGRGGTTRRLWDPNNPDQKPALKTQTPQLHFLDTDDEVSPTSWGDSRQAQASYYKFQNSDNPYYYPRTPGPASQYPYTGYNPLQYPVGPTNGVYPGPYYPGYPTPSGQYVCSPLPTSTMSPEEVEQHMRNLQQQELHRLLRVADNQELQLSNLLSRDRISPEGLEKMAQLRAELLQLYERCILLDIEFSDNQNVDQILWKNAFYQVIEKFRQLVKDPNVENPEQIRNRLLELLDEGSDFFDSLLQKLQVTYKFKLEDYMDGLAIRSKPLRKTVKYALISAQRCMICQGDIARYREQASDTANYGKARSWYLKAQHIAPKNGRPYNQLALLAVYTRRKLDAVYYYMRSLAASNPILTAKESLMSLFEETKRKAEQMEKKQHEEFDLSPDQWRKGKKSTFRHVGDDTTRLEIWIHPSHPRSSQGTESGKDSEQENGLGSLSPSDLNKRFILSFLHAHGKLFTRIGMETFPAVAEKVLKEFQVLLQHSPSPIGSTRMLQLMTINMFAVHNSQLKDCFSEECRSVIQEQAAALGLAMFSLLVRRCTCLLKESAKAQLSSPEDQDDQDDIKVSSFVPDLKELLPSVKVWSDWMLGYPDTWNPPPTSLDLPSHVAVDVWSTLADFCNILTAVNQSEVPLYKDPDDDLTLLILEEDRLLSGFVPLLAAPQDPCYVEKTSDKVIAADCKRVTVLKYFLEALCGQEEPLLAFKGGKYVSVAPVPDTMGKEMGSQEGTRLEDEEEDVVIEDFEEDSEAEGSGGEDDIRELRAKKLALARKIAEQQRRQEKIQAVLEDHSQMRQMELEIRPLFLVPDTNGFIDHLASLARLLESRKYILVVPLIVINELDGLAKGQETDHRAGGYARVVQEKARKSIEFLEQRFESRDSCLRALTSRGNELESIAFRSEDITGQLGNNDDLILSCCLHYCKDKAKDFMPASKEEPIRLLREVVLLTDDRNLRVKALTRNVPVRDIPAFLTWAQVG

Regarding “telomerase, expressed and reconstituted in insect cells or in RRL”, the percent of telomerase activity associated with the beads was 10 percent and 30 percent.
